What was measured:
[1] = biological target: 5C.C7 TCR (mouse (5C.C7 TCR transgenic mice)); assay: FRET or BRET; ensemble Cy3/Cy5 FRET1 at the synapse; His-tagged Cy3-pMHC on a lipid bilayer (95 molecules/um^2) or a PEG-Ni2+ glass surface with ICAM-1 and B7-1; TCR on live primary 5C.C7 T cells labelled with scFv J1-Cy5; 37 °C
[2] = system: TCR microclusters of 5C.C7 T cells; assay: TCR microcluster formation at the T-cell synapse; type: cell-based, mouse; settings: 1 µM LA
Text: TCRs form microclusters upon antigen stimulation (Movie S4). To measure the conformational dynamics of single TCR–pMHC bonds without possible interference from TCR microclusters, we used latrunculin A (LA) to prevent the formation of TCR microclusters during smFRET measurements. […] We then performed smFRET in the absence of TCR microclusters.
To test whether TCR–CD3ζ conformational changes were dependent on TCR signaling, we used an Src kinase inhibitor PP2[27] to block TCR signaling. Consistent with the results of a previous study,[21] […] To reveal the role of TCR signaling in TCR–CD3ζ conformational changes, we plotted the time trajectories of the normalized intramolecular TCR–CD3ζ distances against the stimulation time in the absence and presence of PP2 (Fig. 4d). In the absence of PP2, the intracellular CD3ζ chain quickly separated from the TCR extracellular domain upon TCR engagement with the K5 pMHC and then reached a stable, fully extended TCR–CD3ζ conformation.
To measure the TCR–pMHC bond distance by smFRET in the absence of CD4 binding, T cells were incubated with 10 μg/mL anti-CD4 antibody (GK 1.5, Biolegend) and 0.027 µg/µL of Cy5-J1 scFV for 30 min at 4 °C. After three washes, the cells were added to a lipid bilayer containing Cy3-pMHCs, and smFRET assays were performed in the continuous presence of 10 μg/mL anti-CD4 antibody at 37 °C using TIRF microscopy. […]

5C.C7 TCR = assay: Single-molecule FRET (smFRET) measurement of TCR–pMHC bond distance on lipid bilayer (TIRF); type: cell-based, mouse; settings: 1 µM LA, 1 h pretreatment and continuous presence, smFRET 37 °C, K5, MCC, 102S, 339–1295 trajectories per histogram
Description: We next performed Cy3/Cy5 single-molecule FRET (smFRET) on a lipid bilayer to measure the conformations of single TCR–pMHC bonds using TIRF microscopy (Fig. 2 and Fig. S1b). TCR–pMHC bond formation at live T-cell membrane brought the donor Cy3 and the acceptor Cy5 into close enough proximity to produce smFRET (Figs. 1a and 2a). The fluorescent intensities of Cy3 and Cy5 were simultaneously recorded in real time (Fig. 2b, top panel, and Fig. S4a), and the EFRET values were calculated based on the fluorescence intensities of the donor Cy3 and the acceptor Cy5 (Fig. 2b, bottom panel). […] By plotting the EFRET histogram and fitting it with a Gaussian function, we determined the most probale EFRET value of 0.7, corresponding to a 47 ± 3 Å distance between the 5C.C7 TCR and the super agonist K5 pMHC in a representative smFRET trajectory (Fig. 2c). […] We further measured the average TCR–pMHC bond distances using ensemble FRET on both a lipid bilayer and a glass surface (Figs. S4b and S7), and the results confirmed the single-bond measurements obtained using smFRET (Fig. 2d).
For the FRET measurements between TCRs and pMHCs on the cell surface (FRET1), we generated a peptide-exchangeable CLIP-IE^k molecule.[41] […] The protein fractions were analyzed by SDS-PAGE. […]

[3] = biological target: 5C.C7 TCR (mouse (5C.C7 TCR transgenic mice)); assay: 2D micropipette adhesion frequency assay; biotinylated pMHC monomers on human RBCs by biotin–streptavidin; 5C.C7 T-cell blasts pre-incubated with 10 ug/mL anti-CD4 (GK 1.5); contact times 0.25-5 s, 50 cycles each; 25 °C (legend of Fig. 5); effective 2D constants from a probabilistic kinetic model
[4] = biological target: 5C.C7 TCR (mouse (5C.C7 TCR transgenic mice))

Compound | average synaptic E FRET1 [1] | AcKa (effective 2D affinity) [3] [µm^4] | AcKon (effective 2D on-rate) [3] [µm^4 s^−1] | koff [3] [s⁻¹] | separation between the TCR and CD3ζ after TCR–pMHC binding (transmembrane GFP/Alexa568 FRET2, lipid bilayer, 37 °C) [4] [Å] | further results
C/C1=C/C(=O)O[C@@H]2C[C@@H](CC[C@H](C)/C=C\C=C\CC1)O[C@@](O)([C@@H]1CSC(=O)N1)C2 [latrunculin A] | – | – | – | – | – | effect of LA on TCR microcluster formation [2]: no TCR microclusters were observed; effect on TCR–pMHC bond distances (latrunculin A) (5C.C7 TCR): very close to those measured in the presence of TCR microclusters; effect on TCR–pMHC bond distances (latrunculin A) (5C.C7 TCR; listed as LA): no differences in the TCR–pMHC bond distances
biotinylated monomeric IE^k covalently complexed with the MCC peptide (from UniProt P04230 30-225) (peptide-MHC) | – | 0.00015 | 2e-05 | 1.3 | 10 | –
biotinylated monomeric IE^k covalently complexed with the K5 peptide (from UniProt P04230 30-225) (peptide-MHC) | – | 0.00037 | 3.6e-05 | 1 | 15 | –
biotinylated monomeric IE^k covalently complexed with the 102S peptide (from UniProt P04230 30-225) (peptide-MHC) | – | 1.6e-05 | 2.4e-06 | 1.5 | 5 | –

Continued, in another order:

average synaptic E FRET1 [1] | AcKa (effective 2D affinity) [3] [µm^4] | AcKon (effective 2D on-rate) [3] [µm^4 s^−1] | koff [3] [s⁻¹] | separation between the TCR and CD3ζ after TCR–pMHC binding (transmembrane GFP/Alexa568 FRET2, lipid bilayer, 37 °C) [4] [Å] | Compound | further results
0.29 | – | – | – | – | T102S(C)-Cy3 peptide on His-tagged IE^k (from UniProt P04230 30-225) (peptide-MHC) | –
0.79 | – | – | – | – | K5(C)-Cy3 peptide on His-tagged IE^k (from UniProt P04230 30-225) (peptide-MHC) | –
0.54 | – | – | – | – | MCC(C)-Cy3 peptide on His-tagged IE^k (from UniProt P04230 30-225) (peptide-MHC) | –

From article PMC7052167, “TCR–pMHC bond conformation controls TCR ligand discrimination” (Cellular and Molecular Immunology, 2019)
